Consider 3 molecules from article PMC10269810, “RNA Encapsulation Mode and Evolutionary Insights from the Crystal Structure of Emaravirus Nucleoprotein”.

Data set [1] deals with fig mosaic virus nucleoprotein, full length (N^fl) (fig mosaic virus). Put plainly: SEC-MALS; RNA-free purified N^fl; conditions not given. Background: In gel filtration, larger molecules generally elute earlier.
In data set [2] the target is trypsin-treated fig mosaic virus nucleoprotein lacking the first 45 N-terminal residues (N^ΔN45) (fig mosaic virus). Put plainly: crystal structure; RNA-free N^ΔN45, hanging drop at 16°C, sodium formate pH 7.0, space group P2_(1), four molecules in the asymmetric unit.
For data set [3] the target is unchanged. Put plainly: crystal structure; N^ΔN45 co-crystallized with 42-mer poly(U) ssRNA, 20% PEG 3350, 0.2 M magnesium formate pH 5.9, space group P2_(1)2_(1)2_(1).
The target of another data set is FMV N full length (Nfl) (Fig mosaic virus (Fimoviridae, …, UniProt I2FFM8 1-315)). Put plainly: fluorescence polarization; RNA 1 uM; ITC: 20 mM Tris pH 7.4, 150 mM NaCl, 5% glycerol, 5 mM beta-ME, 25 C; FP: 1 uM RNA, 37 C 20 min incubation, buffer not stated (protein stock 20 mM Tris pH 7.5). The conditions noted are these: protein: recombinant; tags: N-terminal 6xHis removed by TEV; chain copies: 4; label: 5' 6-carboxyfluorescein (FAM); single strand. (In fluorescence polarisation assays a small probe gives low polarisation when free and higher when bound to something large.)

Several values for one entry are separate records, joined by “and”; a condition that tells them apart may be missing. Equal entries are not always repeated.

As usually defined, the stoichiometry N is a count of units in the complex or per binding partner. “fig mosaic virus nucleoprotein, full length (N^fl) (natural protein)”: the stoichiometry N in data set [1] is 4 and 3 and 5.

“trypsin-treated fig mosaic virus nucleoprotein lacking the first 45 N-terminal residues (N^ΔN45) (domain or fragment)”: the stoichiometry N in data set [2] and in data set [3] was 4 each time.

As usually defined, the Kd is a measure of binding affinity in units of concentration. Consider UUUUUUUUUUUUUUUUUUUUUUUUUUUUUUUUUUUUUUUUUU (ssRNA) [poly(rU) 42-mer, FAM], for which, in the data set with FMV N full length (Nfl), the Kd was around 5 µM.
